# From paper PMC8216847
# Molecular target: SARS-HCoV-2 S2 extra-cellular domain (SARS-CoV-2)
substance,measurement,value
CV3-25 (antibody),IC50 of neutralisation of SARS-CoV-2 pseudovirus on HEK293T-hACE2 cells,0.34 µg/mL
